Measured values reported in patent US6699869.

Target: T1, (D)FPR-PNA
T1 chain: FPR

B1: human Factor VIIa (FVIIa) and human tissue factor (TF) complex (protein)
chain 1: ANAFLEELRPGSLERECKEEQCSFEEAREIFKDAERTKLFWISYSDGDQCASSPCQNGGSCKDQLQSYICFCLPAFEGRNCETHKDDQLICVNENGGCEQYCSDHTGTKRSCRCHEGYSLLADGVSCTPTVEYPCGKIPILEKRNASKPQGRIVGGKVCPKGECPWQVLLLVNGAQLCGGTLINTIWVVSAAHCFDKIKNWRNLIAVLGEHDLSEHDGDEQSRRVAQVIIPSTYVPGTTNHDIALLRLHQPVVLTDHVVPLCLPERTFSERTLAFVRFSLVSGWGQLLDRGATALELMVLNVPRLMTQDCLQQSRKVGDSPNITEYMFCAGYSDGSKDSCKGDSGGPHATHYRGTWYLTGIVSWGQGCATVGHFGVYTRVSQYIEWLQKLMRSEPRPGVLLRAPFP
chain 2: SGTTNTVAAYNLTWKSTNFKTILEWEPKPVNQVYTVQISTKSGDWKSKCFYTTDTECDLTDEIVKDVKQTYLARVFSYPAGNVESTGSAGEPLYENSPEFTPYLETNLGQPTIQSFEQVGTKVNVTVEDERTLVRRNNTFLSLRDVFGKDLIYTLYYWKSSSSGKKTAKTNTNEFLIDVDKGENYCFSVQAVIPSRTVNRKSTDSPVECMGQEKGEFRE
- Kcat/KM of substrate hydrolysis: Factor VII: Kcat/KM=1.27×10^4 M^-1 S^-1
